Laboratory results published in the supplement of paper PMC10567573.

B1: MMP1 (parent)
chain: FVRGDHRDNSPFDGPGGNLAHAFQ

Variants of: B1
Experiment: protein stability index of a GFP-peptide fusion (GPS, HEK-293T) (PSI 1-6); higher = more stable
Details: c terminus: a fixed tail appended
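Note: lentivirally expressed fusions sorted by FACS into six bins by GFP to DsRed ratio, PSI derived from sequencing read proportions per bin multiplied by bin number.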

Going from FVRGDNRDNSPFDGPGGNLAHAFQ to FVRGDGRDNSPFDGPGGNLAHAFQ, the protein stability index rises from 1.33 to 2.26.

Going from FVRGDRRDNSPFDGPGGNLAHAFQ to FVRGDIRDNSPFDGPGGNLAHAFQ, the protein stability index falls from 1.99 to 1.55.

First: FVRGDPRDNSPFDGPGGNLAHAFQ
Second: FVRGDMRDNSPFDGPGGNLAHAFQ
The protein stability index of the first is lower: 1.48 for the first, 2.16 for the second.

First: FVRGDARDNSPFDGPGGNLAHAFQ
Second: FVRGDERDNSPFDGPGGNLAHAFQ
The protein stability index of the first is higher: 2.42 for the first, 1.76 for the second.

Compared with FVRGDDRDNSPFDGPGGNLAHAFQ, FVRGDLRDNSPFDGPGGNLAHAFQ is higher in protein stability index: 2.5 for the first, 2.64 for the second.

First: FVRGDSRDNSPFDGPGGNLAHAFQ
Second: FVRGDCRDNSPFDGPGGNLAHAFQ
The protein stability index of the first is lower: 1.85 for the first, 2.02 for the second.

Compared with FVRGDTRDNSPFDGPGGNLAHAFQ, FVRGDVRDNSPFDGPGGNLAHAFQ is higher in protein stability index: 1.58 for the first, 2.48 for the second.

First: FVRGDFRDNSPFDGPGGNLAHAFQ
Second: FVRGDKRDNSPFDGPGGNLAHAFQ
The protein stability index of the first is higher: 3.13 for the first, 2.57 for the second.

Compared with FVRGDQRDNSPFDGPGGNLAHAFQ, FVRGDHRDNSPFCGPGGNLAHAFQ is higher in protein stability index: 1.42 for the first, 2.36 for the second.

Going from FVRGDHRDNSPFKGPGGNLAHAFQ to FVRGDHRDNSPFQGPGGNLAHAFQ, the protein stability index rises from 1.59 to 2.21.

First: FVRGDHRDNSPFIGPGGNLAHAFQ
Second: FVRGDHRDNSPFNGPGGNLAHAFQ
The protein stability index of the first is lower: 1.63 for the first, 1.77 for the second.

Going from FVRGDHRDNSPFGGPGGNLAHAFQ to FVRGDHRDNSPFHGPGGNLAHAFQ, the protein stability index rises from 2.6 to 3.02.

Compared with FVRGDHRDNSPFYGPGGNLAHAFQ, FVRGDHRDNSPFRGPGGNLAHAFQ is lower in protein stability index: 3.03 for the first, 1.48 for the second.

Going from FVRGDHRDNSPFLGPGGNLAHAFQ to FVRGDHRDNSPFPGPGGNLAHAFQ, the protein stability index rises from 1.47 to 3.31.

First: FVRGDHRDNSPFVGPGGNLAHAFQ
Second: FVRGDHRDNSPFEGPGGNLAHAFQ
The protein stability index of the first is higher: 3.19 for the first, 2.57 for the second.

First: FVRGDHRDNSPFMGPGGNLAHAFQ
Second: FVRGDHRDNSPFSGPGGNLAHAFQ
The protein stability index of the first is lower: 1.03 for the first, 2.56 for the second.

Going from FVRGDHRDNSPFAGPGGNLAHAFQ to FVRGDHRDNSPFTGPGGNLAHAFQ, the protein stability index rises from 1.37 to 2.27.

First: FVRGDHRDKSPFDGPGGNLAHAFQ
Second: FVRGDHRDHSPFDGPGGNLAHAFQ
The protein stability index of the first is lower: 2.47 for the first, 4.14 for the second.

Compared with FVRGDHRDTSPFDGPGGNLAHAFQ, FVRGDHRDWSPFDGPGGNLAHAFQ is lower in protein stability index: 2.13 for the first, 2.12 for the second.

First: FVRGDHRDQSPFDGPGGNLAHAFQ
Second: FVRGDHRDVSPFDGPGGNLAHAFQ
The protein stability index of the first is higher: 2.07 for the first, 1.87 for the second.

Going from FVRGDHRDESPFDGPGGNLAHAFQ to FVRGDHRDISPFDGPGGNLAHAFQ, the protein stability index rises from 2.15 to 3.22.

Compared with FVRGDHRDGSPFDGPGGNLAHAFQ, FVRGDHRDYSPFDGPGGNLAHAFQ is higher in protein stability index: 1.38 for the first, 2.58 for the second.

Going from FVRGDHRDPSPFDGPGGNLAHAFQ to FVRGDHRDSSPFDGPGGNLAHAFQ, the protein stability index rises from 2.4 to 2.41.

Compared with FVRGDHRDMSPFDGPGGNLAHAFQ, FVRGDHRDDSPFDGPGGNLAHAFQ is lower in protein stability index: 2.27 for the first, 1.8 for the second.

Going from FVRGDHRDASPFDGPGGNLAHAFQ to FVRGDHRDFSPFDGPGGNLAHAFQ, the protein stability index rises from 2.53 to 3.83.

Compared with FVRGDHRDLSPFDGPGGNLAHAFQ, FVRGDHRDCSPFDGPGGNLAHAFQ is lower in protein stability index: 2.31 for the first, 1.93 for the second.

Going from FVRGDHRDNSPFDGFGGNLAHAFQ to FVRGDHRDNSPFDGGGGNLAHAFQ, the protein stability index falls from 2.1 to 1.61.

First: FVRGDHRDNSPFDGDGGNLAHAFQ
Second: FVRGDHRDNSPFDGHGGNLAHAFQ
The protein stability index of the first is higher: 2.97 for the first, 1.79 for the second.

Compared with FVRGDHRDNSPFDGAGGNLAHAFQ, FVRGDHRDNSPFDGKGGNLAHAFQ is higher in protein stability index: 1.53 for the first, 1.94 for the second.

Going from FVRGDHRDNSPFDGEGGNLAHAFQ to FVRGDHRDNSPFDGIGGNLAHAFQ, the protein stability index falls from 2.37 to 1.72.

Compared with FVRGDHRDNSPFDFPGGNLAHAFQ, FVRGDHRDNSPFDEPGGNLAHAFQ is lower in protein stability index: 2.93 for the first, 2.06 for the second.

Going from FVRGDHRDNSPFDWPGGNLAHAFQ to FVRGDHRDNSPFDNPGGNLAHAFQ, the protein stability index rises from 1.69 to 1.7.

Compared with FVRGDHRDNSPFDTPGGNLAHAFQ, FVRGDHRDNSPFDAPGGNLAHAFQ is higher in protein stability index: 1.76 for the first, 2.12 for the second.

First: FVRGDHRDNSPFDYPGGNLAHAFQ
Second: FVRGDHRDNSPFDPPGGNLAHAFQ
The protein stability index of the first is higher: 2.2 for the first, 1.91 for the second.

First: FVRGDHRDNSPFDIPGGNLAHAFQ
Second: FVRGDHRDNSPFDSPGGNLAHAFQ
The protein stability index of the first is higher: 2.51 for the first, 1.89 for the second.

Compared with FVRGDHRDNSPFDVPGGNLAHAFQ, FVRGDHRDNSPFDKPGGNLAHAFQ is lower in protein stability index: 3.45 for the first, 1.77 for the second.

First: FVRGDHRDNSPFDQPGGNLAHAFQ
Second: FVRGDHRDNSPFDLPGGNLAHAFQ
The protein stability index of the first is higher: 3.14 for the first, 2.44 for the second.

Compared with FVRGDHRDNSPFDDPGGNLAHAFQ, FVRGDHRDNSPFDRPGGNLAHAFQ is lower in protein stability index: 2.25 for the first, 1.6 for the second.

Compared with FVRGDHRDNSPFDCPGGNLAHAFQ, FVRGDHRDNSPFDHPGGNLAHAFQ is lower in protein stability index: 2.99 for the first, 1.39 for the second.

Compared with FVRGDHRCNSPFDGPGGNLAHAFQ, FVRGDHRGNSPFDGPGGNLAHAFQ is lower in protein stability index: 3.26 for the first, 1.84 for the second.

First: FVRGDHRMNSPFDGPGGNLAHAFQ
Second: FVRGDHRPNSPFDGPGGNLAHAFQ
The protein stability index of the first is higher: 3.46 for the first, 2.12 for the second.

First: FVRGDHRENSPFDGPGGNLAHAFQ
Second: FVRGDHRFNSPFDGPGGNLAHAFQ
The protein stability index of the first is lower: 1.31 for the first, 4.46 for the second.

Compared with FVRGDHRWNSPFDGPGGNLAHAFQ, FVRGDHRSNSPFDGPGGNLAHAFQ is lower in protein stability index: 3.09 for the first, 2.08 for the second.

Going from FVRGDHRVNSPFDGPGGNLAHAFQ to FVRGDHRYNSPFDGPGGNLAHAFQ, the protein stability index rises from 2.25 to 3.24.

First: FVRGDHRLNSPFDGPGGNLAHAFQ
Second: FVRGDHRNNSPFDGPGGNLAHAFQ
The protein stability index of the first is lower: 2.25 for the first, 2.68 for the second.

Compared with FVRGDHRINSPFDGPGGNLAHAFQ, FVRGDHRRNSPFDGPGGNLAHAFQ is lower in protein stability index: 1.87 for the first, 1.62 for the second.

Going from FVRGDHRTNSPFDGPGGNLAHAFQ to FVRGDHRHNSPFDGPGGNLAHAFQ, the protein stability index rises from 2.28 to 2.29.
